Results on 24 molecules are retold here after patent publication US20160011195A1.

In test [1] the target is PLK1 PBD protein (residues 367-603) (human), P53350. Description: competitive FP, displacement of fluorescein tracer SEQ ID NO: 7 from PLK1 PBD (367-603).
Test [2] has as its target PLK1 (endogenous, in HeLa / HeLa-H2B-GFP cells) (human), P53350. Nature of the test: cell-based or functional assay.
The target in test [3] is PLK1 PBD protein (residues 367-603) (human), P53350. Nature of the test: competitive FP.

Chain of PLK1 (endogenous, in HeLa / HeLa-H2B-GFP cells) (human), P53350 (P53350 2-603): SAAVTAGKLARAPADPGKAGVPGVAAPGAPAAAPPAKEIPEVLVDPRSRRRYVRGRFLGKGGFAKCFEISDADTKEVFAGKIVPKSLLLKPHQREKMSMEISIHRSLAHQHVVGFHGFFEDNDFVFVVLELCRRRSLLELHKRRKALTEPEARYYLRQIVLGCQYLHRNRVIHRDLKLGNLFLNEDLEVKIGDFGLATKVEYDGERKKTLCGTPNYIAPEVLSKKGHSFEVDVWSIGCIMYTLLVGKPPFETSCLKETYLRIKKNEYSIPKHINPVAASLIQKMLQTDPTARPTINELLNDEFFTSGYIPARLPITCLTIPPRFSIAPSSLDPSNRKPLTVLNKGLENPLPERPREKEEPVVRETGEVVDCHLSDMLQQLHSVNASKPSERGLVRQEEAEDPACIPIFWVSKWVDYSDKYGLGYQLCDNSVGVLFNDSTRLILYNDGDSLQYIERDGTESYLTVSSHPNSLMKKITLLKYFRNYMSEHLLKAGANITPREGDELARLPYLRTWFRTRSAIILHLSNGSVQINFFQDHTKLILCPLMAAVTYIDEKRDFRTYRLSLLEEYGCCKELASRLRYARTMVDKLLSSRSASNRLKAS
Chain of PLK1 PBD protein (residues 367-603) (human), P53350 (P53350 367-603 limits assumed): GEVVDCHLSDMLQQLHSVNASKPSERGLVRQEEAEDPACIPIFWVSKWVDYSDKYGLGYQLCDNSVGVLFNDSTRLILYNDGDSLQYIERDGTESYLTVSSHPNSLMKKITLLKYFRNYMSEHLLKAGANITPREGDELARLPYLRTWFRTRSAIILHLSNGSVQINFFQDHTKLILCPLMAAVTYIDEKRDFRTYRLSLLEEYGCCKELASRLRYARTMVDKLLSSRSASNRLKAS

B1: Sample No. 5830, fragment ligated inhibitor (4-(Propylamino) benzoic acid) (peptide)
peptide: STPNGL
modifications: not checked
For B1, in test [1], the IC50 was 16.5 µM.

B2: Sample No. 5591, fragment ligated inhibitor (peptide)
peptide: STPNGL
modifications: not checked
In test [1], B2 returned a half-inhibitory concentration (IC50) of 375 µM.

B3: Ac-LLCS[pT]PNGL (sample no. 5821) (peptide)
peptide: LLCSTPNGL
modifications: not checked
B3 gave a fraction of viable cells after 24 hours, 30 µM (Annexin V/PI) in test [2] of 57%.

B4: … (sample no. 345) (peptide)
peptide: LLCSEPNGL
modifications: not checked
As to B4, the IC50 in test [1] came to 350 µM. Also, the fold less potent (than the phosphothreonine sequence) in test [3] turned out to be 1000 fold.

B5: Sample No. 5597, fragment ligated inhibitor (peptide)
peptide: STPNGL
modifications: not checked
The molecule B5 came in with an IC50 in test [1] of 500 µM.

B6: 3G2-S[pT]PNGL (4-butylbenzoic acid) (Sample No. 5827) (peptide)
peptide: STPNGL
modifications: not checked
In the case of B6, in test [2], the Aberrant mitoses @ 24 hr stood at 53.8%; the Apoptosis @24 hr is 55.5%; the proportion of viable cells after 24 hours, 30 µM (Annexin V/PI) was 45%.

B7: Sample No. 5599, fragment ligated inhibitor (peptide)
peptide: STPNGL
modifications: not checked
Consider B7, for which the IC50 in test [1] amounted to 600 µM.

B8: Ac-PLHSEA (sample no. 5744) (peptide)
peptide: PLHSEA
modifications: not checked
Turning to B8, the IC50 in test [1] came out at 500 µM.

B9: Sample No. 5826, fragment ligated inhibitor (4-propylbenzoic acid) (peptide)
peptide: STPNGL
modifications: not checked
On to B9, for which the IC50 in test [1] stood at 10.8 µM. Against the preceding molecule, the IC50 is about 46-fold lower.

B10: Sample No. 5601, fragment ligated inhibitor (peptide)
peptide: STPNGL
modifications: not checked
Take B10: the IC50 in test [1] was 400 µM. Against the preceding molecule, the IC50 is about 37-fold higher.

B11: Sample No. 5593, fragment ligated inhibitor (peptide)
peptide: STPNGL
modifications: not checked
In turn, B11 came in with an IC50 in test [1] of 380 µM.

B12: Ac-LHS[pT]AI (sample no. 5781) (peptide)
peptide: LHSTAI
modifications: not checked
In test [2], B12 came in with an aberrant metaphase (30 µM) of 23%; a decrease of the percentage of viable cells, 24 hours, 30 µM (Annexin V/PI) of 30%; a relative fluorescence intensity of PLK1 staining at centrosomes (30 µM, HeLa-H2B-GFP) (arbitrary fluorescence units) of 35.

B13: Sample No. 5792, fragment ligated inhibitor (4-(Methylamino) benzoic acid) (peptide)
peptide: STPNGL
modifications: not checked
In test [1], B13 showed a 50% inhibitory concentration (IC50) of 31.2 µM. In other words, the double-digit micromolar range.

B14: Sample No. 5604, fragment ligated inhibitor (peptide)
peptide: STPNGL
modifications: not checked
Regarding B14, the IC50 in test [1] turned out to be 300 µM.

B15: LLCS[pT]PNGL, native phospho-CDC25c PBD binding sequence (sample no. 292) (peptide)
peptide: LLCSTPNGL
modifications: not checked
For B15, in test [2], the aberrant prometaphase/metaphase features (30 µM) is 25% and the relative fluorescence intensity of PLK1 staining at centrosomes (HeLa-H2B-GFP) (arbitrary fluorescence units) was 45.

B16: Sample No. 5595, fragment ligated inhibitor (peptide)
peptide: STPNGL
modifications: not checked
The molecule B16 registered an IC50 in test [1] of 475 µM.

B17: Sample No. 5600, fragment ligated inhibitor (peptide)
peptide: STPNGL
modifications: not checked
The molecule B17 yielded an IC50 in test [1] of 550 µM.

B18: Sample No. 5754, fragment ligated inhibitor (4-methoxybenzoic acid) (peptide)
peptide: STPNGL
modifications: not checked
Take B18: the IC50 in test [1] came to 125 µM.

B19: Sample No. 5786, fragment ligated inhibitor (4-ethoxybenzoic acid) (peptide)
peptide: STPNGL
modifications: not checked
On to B19, for which, in test [1], the IC50 is 64.7 µM.

B20: Sample No. 5791, fragment ligated inhibitor (4-(Methylthio) benzoic acid) (peptide)
peptide: STPNGL
modifications: not checked
Take B20: in test [1], the IC50 is 18.5 µM.

B21: … (sample no. 5783) (peptide)
peptide: LLAAAPNGL
modifications: not checked
B21 had an aberrant prometaphase/metaphase features (30 µM) in test [2] of 9.5%.

B22: Ac-PLHS[pT]A (sample no. 5743) (peptide)
peptide: PLHSTA
modifications: not checked
In test [2], B22 returned an Aberrant mitoses @ 24 hr, 30 mM of 40.3%; an Apoptosis @24 hr of 34%; a cells with mitotic abnormalities (10 µM) of 32%; a relative fluorescence intensity of PLK1 staining at centrosomes (30 µM, HeLa-H2B-GFP) (arbitrary fluorescence units) of 33.

B23: 3G1-S[pT]PNGL (4-ethylbenzoic acid) (Sample No. 5788) (peptide)
peptide: STPNGL
modifications: not checked
In test [2], B23 yielded an Aberrant mitoses @ 24 hr of 47.9%; an Apoptosis @24 hr, 30 mM of 36.2%; a proportion of viable cells after 24 hours, 30 µM (Annexin V/PI) of 64%; a relative fluorescence intensity of PLK1 staining at centrosomes (10 µM, HeLa-H2B-GFP) (arbitrary fluorescence units) of 32.

B24: Sample No. 5753, fragment ligated inhibitor (peptide)
peptide: STPNGL
modifications: not checked
In turn, B24 came in with an IC50 in test [1] of 104 µM.
